The assay deals with acetylcholine receptor (Homo sapiens, UniProt P02708). Kind of assay: SPR binding affinity (RU) of optimized 5mer/6mer/7mer peptides, Examples 6-7. Conditions: SPR, peptides tested at 10 μM. The procedure: Based on the frequencies of occurrence of the top 7 amino acids from Table 7 in Example 5, 600 peptides comprising these amino acids (top combinations) and those comprising the 13 less frequently occurring amino acids (bottom combinations) were synthesized for each series of 5mer, 6mer-1, and 6mer-2. The binding affinity of each sequence for the acetylcholine receptor was measured using Surface Plasmon Resonance (SPR) analysis method. The peptides were tested at a concentration of 10 μM. Additionally, the average binding affinities of the top and bottom combinations in each series are depicted in FIGS. 5-7.
Representative peptides identified in Example 6, two in each library, including 5mers (73, 311) and 6mers-1 (43, 210) and 6mers-2 (136, 233), were compared with the pre-optimized 6mer, 5mer-ND, and Synake.
(Surface plasmon resonance follows binding to a sensor surface in real time, without labels.)

Where [1] appears, read: Resonance Units, 5mer Bottom sequence (bottom combinations).

Sequence of acetylcholine receptor (P02708 21-457): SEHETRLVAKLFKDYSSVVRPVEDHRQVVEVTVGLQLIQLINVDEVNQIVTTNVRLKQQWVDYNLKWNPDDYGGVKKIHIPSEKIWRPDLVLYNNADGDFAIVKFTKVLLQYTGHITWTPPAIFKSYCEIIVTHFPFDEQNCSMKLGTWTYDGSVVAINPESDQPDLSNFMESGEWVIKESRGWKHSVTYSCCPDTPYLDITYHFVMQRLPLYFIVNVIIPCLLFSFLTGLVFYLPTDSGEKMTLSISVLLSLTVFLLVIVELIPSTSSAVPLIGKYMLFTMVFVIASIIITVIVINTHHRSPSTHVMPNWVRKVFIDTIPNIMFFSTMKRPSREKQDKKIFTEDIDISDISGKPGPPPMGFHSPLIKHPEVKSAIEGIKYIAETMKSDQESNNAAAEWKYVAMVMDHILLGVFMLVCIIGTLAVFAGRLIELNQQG

Regarding 5mer-822 (RAKGK), under “5mer Bottom sequence”, the Binding affinity came out at 16 Ru.

With 5mer-823 (KECFK), the Binding affinity (5mer Bottom sequence) turned out to be 26 Ru.

Take 5mer-824 (KIDMK): under “5mer Bottom sequence”, the Binding affinity was 13 Ru.

For the substance 5mer-825 (RDEKK), for the setting “5mer Bottom sequence”, the Binding affinity is on record as 14 Ru.

Consider 5mer-826 (KCKMK), for which the Binding affinity (5mer Bottom sequence) is listed as 11 Ru.

Regarding 5mer-827 (KKAGR), the Binding affinity (5mer Bottom sequence) was determined as 18 Ru.

For 5mer-828 (RFCWR), the Binding affinity (5mer Bottom sequence) is reported as 27 Ru.

With 5mer-829 (KCWHR), the Binding affinity (5mer Bottom sequence) came out at 26 Ru.

Consider 5mer-830 (RIDGK), for which, where the note is “5mer Bottom sequence”, the Binding affinity came out at 25 Ru.

As to 5mer-831 (RAAGK), the Binding affinity (5mer Bottom sequence) amounted to 24 Ru.

For the substance 5mer-832 (RMHER), where the note is “5mer Bottom sequence”, the Binding affinity is on record as 18 Ru.

As for 5mer-833 (KATAK), the Binding affinity (5mer Bottom sequence) was found to be 33 Ru.

For the substance 5mer-834 (RMNIK), the Binding affinity (5mer Bottom sequence) was found to be 15 Ru.

5mer-835 (RFMMR): the Binding affinity (5mer Bottom sequence) was found to be 14 Ru.

Take 5mer-836 (REWNR): the Binding affinity (5mer Bottom sequence) is 15 Ru.

For 5mer-837 (RPMDR), under “5mer Bottom sequence”, the Binding affinity is 28 Ru.

Take 5mer-838 (RHSMK): the Binding affinity (5mer Bottom sequence) came to 13 Ru.

Regarding 5mer-839 (RHHDK), the Binding affinity (5mer Bottom sequence) is on record as 26 Ru.

With 5mer-840 (KDTAR), the Binding affinity (5mer Bottom sequence) came to 11 Ru.

Consider 5mer-841 (KNEMR), for which, for the setting “5mer Bottom sequence”, the Binding affinity is 22 Ru.

5mer-842 (RHNVK): the Binding affinity (5mer Bottom sequence) was determined as 20 Ru.

In the case of 5mer-843 (KTTPK), the Binding affinity (5mer Bottom sequence) was found to be 17 Ru.

Consider 5mer-844 (KTDPR), for which the Binding affinity (5mer Bottom sequence) stood at 32 Ru.

In the case of 5mer-845 (RYEDR), the Binding affinity (5mer Bottom sequence) is 15 Ru.

Turning to 5mer-846 (RPDWR), the Binding affinity (5mer Bottom sequence) was 32 Ru.

As for 5mer-847 (KAPEK), where the note is “5mer Bottom sequence”, the Binding affinity came to 28 Ru.

For 5mer-848 (RYMVK), under “5mer Bottom sequence”, the Binding affinity is listed as 12 Ru.

Take 5mer-849 (KTWMK): the Binding affinity (5mer Bottom sequence) came out at 15 Ru.

As to 5mer-850 (KYDIR), the Binding affinity (5mer Bottom sequence) was determined as 13 Ru.

Take 5mer-851 (KMCWK): for the setting “5mer Bottom sequence”, the Binding affinity is given as 19 Ru.

For the substance 5mer-852 (KDSMK), the Binding affinity (5mer Bottom sequence) was 22 Ru.

For 5mer-853 (RYHIK), for the setting “5mer Bottom sequence”, the Binding affinity was 13 Ru.

Turning to 5mer-854 (RNTER), where the note is “5mer Bottom sequence”, the Binding affinity is 21 Ru.

In the case of 5mer-855 (RFMKK), the Binding affinity (5mer Bottom sequence) was 18 Ru.

Turning to 5mer-856 (KPPDR), the Binding affinity (5mer Bottom sequence) was found to be 23 Ru.

As for 5mer-857 (KMENR), the Binding affinity (5mer Bottom sequence) came to 23 Ru.

As to 5mer-858 (RIMGR), the Binding affinity (5mer Bottom sequence) came to 33 Ru.

Regarding 5mer-859 (KHNAR), the Binding affinity (5mer Bottom sequence) was 26 Ru.

On to 5mer-860 (RCHAK), for which the Binding affinity (5mer Bottom sequence) amounted to 31 Ru.

Consider 5mer-861 (KTKIR), for which the Binding affinity (5mer Bottom sequence) stood at 20 Ru.

With 5mer-862 (KKNAK), the Binding affinity (5mer Bottom sequence) turned out to be 19 Ru.

Turning to 5mer-863 (REANR), the Binding affinity (5mer Bottom sequence) is 16 Ru.

As to 5mer-864 (KYHPR), under “5mer Bottom sequence”, the Binding affinity stood at 25 Ru.

As for 5mer-865 (RMMER), the Binding affinity (5mer Bottom sequence) is reported as 21 Ru.

As for 5mer-866 (RINWR), the Binding affinity (5mer Bottom sequence) stood at 11 Ru.

5mer-867 (KDSWK): the Binding affinity (5mer Bottom sequence) was found to be 14 Ru.

Turning to 5mer-868 (KMHFK), the Binding affinity (5mer Bottom sequence) was found to be 18 Ru.

5mer-869 (KKHPK): for the setting “5mer Bottom sequence”, the Binding affinity came out at 31 Ru.

Turning to 5mer-870 (RCKVK), the Binding affinity (5mer Bottom sequence) worked out at 25 Ru.

As to 5mer-871 (RHSHR), where the note is “5mer Bottom sequence”, the Binding affinity came out at 21 Ru.

As to 5mer-872 (RKKWK), the Binding affinity (5mer Bottom sequence) came to 29 Ru.

As for 5mer-873 (RYNFR), the Binding affinity (5mer Bottom sequence) is 32 Ru.

On to 5mer-874 (RIHMR), for which the Binding affinity (5mer Bottom sequence) stood at 27 Ru.

For the substance 5mer-875 (KHCNK), the Binding affinity (5mer Bottom sequence) is listed as 33 Ru.

Consider 5mer-876 (KETAR), for which, for the setting “5mer Bottom sequence”, the Binding affinity is 16 Ru.

Take 5mer-877 (RFSMR): the Binding affinity (5mer Bottom sequence) was determined as 17 Ru.

For 5mer-878 (KHTER), the Binding affinity (5mer Bottom sequence) was 24 Ru.

Turning to 5mer-879 (KDCMK), the Binding affinity (5mer Bottom sequence) is given as 13 Ru.

Consider 5mer-880 (RCDKK), for which the Binding affinity (5mer Bottom sequence) is 17 Ru.

Take 5mer-881 (RNDAK): the Binding affinity (5mer Bottom sequence) is on record as 31 Ru.

On to 5mer-882 (REEGR), for which, for the setting “5mer Bottom sequence”, the Binding affinity came to 18 Ru.

As for 5mer-883 (KMSAK), the Binding affinity (5mer Bottom sequence) is listed as 16 Ru.

For the substance 5mer-884 (KIWEK), under “5mer Bottom sequence”, the Binding affinity came out at 28 Ru.

With 5mer-885 (RHCNR), the Binding affinity (5mer Bottom sequence) is recorded as 19 Ru.

Turning to 5mer-886 (RMMFR), under “5mer Bottom sequence”, the Binding affinity is 21 Ru.

For 5mer-887 (KTPVR), for the setting “5mer Bottom sequence”, the Binding affinity came out at 30 Ru.

Regarding 5mer-888 (KKCIR), the Binding affinity (5mer Bottom sequence) is reported as 31 Ru.

5mer-889 (KTPGR): under “5mer Bottom sequence”, the Binding affinity worked out at 25 Ru.

Take 5mer-890 (KKHFK): the Binding affinity (5mer Bottom sequence) came to 33 Ru.

Turning to 5mer-891 (RKKMK), the Binding affinity (5mer Bottom sequence) was found to be 24 Ru.

Take 5mer-892 (RKPMR): the Binding affinity (5mer Bottom sequence) is 29 Ru.

For the substance 5mer-893 (RIKIK), where the note is “5mer Bottom sequence”, the Binding affinity is 18 Ru.

Turning to 5mer-894 (KMSPR), where the note is “5mer Bottom sequence”, the Binding affinity amounted to 18 Ru.

For the substance 5mer-895 (RFTKK), the Binding affinity (5mer Bottom sequence) was 18 Ru.

For 5mer-896 (RYHWR), the Binding affinity (5mer Bottom sequence) is 27 Ru.

Regarding 5mer-897 (KFCER), where the note is “5mer Bottom sequence”, the Binding affinity worked out at 30 Ru.

Regarding 5mer-898 (RYCMR), where the note is “5mer Bottom sequence”, the Binding affinity worked out at 20 Ru.

Take 5mer-899 (RYTFR): the Binding affinity (5mer Bottom sequence) is given as 31 Ru.

For 5mer-900 (RHSVK), the Binding affinity (5mer Bottom sequence) is listed as 29 Ru.

As to 5mer-901 (KCTNR), the Binding affinity under setting [1] amounted to 30 Ru.

As to 5mer-902 (REDPK), the Binding affinity under setting [1] was determined as 23 Ru.

For 5mer-903 (RHHKR), the Binding affinity under setting [1] is recorded as 21 Ru.

Consider 5mer-904 (KPDPK), for which, under setting [1], the Binding affinity is 23 Ru.

With 5mer-905 (RPSPR), under setting [1], the Binding affinity came to 30 Ru.

For the substance 5mer-906 (RKHAK), the Binding affinity under setting [1] was found to be 31 Ru.

Turning to 5mer-907 (KDSVR), the Binding affinity under setting [1] was found to be 18 Ru.

5mer-908 (RCHFK): the Binding affinity under setting [1] is given as 25 Ru.

Turning to 5mer-909 (RINVK), under setting [1], the Binding affinity is listed as 33 Ru.

5mer-910 (RPCFR): the Binding affinity under setting [1] is reported as 17 Ru.

As to 5mer-911 (REHGK), the Binding affinity under setting [1] is 14 Ru.

Take 5mer-912 (KKMGR): under setting [1], the Binding affinity worked out at 16 Ru.

For 5mer-913 (KHTFK), the Binding affinity under setting [1] was 13 Ru.

For the substance 5mer-914 (RPTMR), the Binding affinity under setting [1] is reported as 26 Ru.

In the case of 5mer-915 (KMTHR), under setting [1], the Binding affinity is 28 Ru.

With 5mer-916 (RCHER), under setting [1], the Binding affinity stood at 12 Ru.

For the substance 5mer-917 (KCAPR), under setting [1], the Binding affinity was 11 Ru.

Turning to 5mer-918 (RNNVR), under setting [1], the Binding affinity stood at 12 Ru.

For the substance 5mer-919 (KNNIK), under setting [1], the Binding affinity was determined as 32 Ru.

Turning to 5mer-920 (KPKIK), under setting [1], the Binding affinity is reported as 15 Ru.

5mer-921 (KKKFK): the Binding affinity under setting [1] worked out at 21 Ru.

5mer-922 (RMWKR): under setting [1], the Binding affinity is 14 Ru.

5mer-923 (KCWMK): the Binding affinity under setting [1] amounted to 19 Ru.

Regarding 5mer-924 (RNEKK), the Binding affinity under setting [1] was 27 Ru.

With 5mer-925 (KDCFK), the Binding affinity under setting [1] is recorded as 25 Ru.

These data come from patent US20250011363A1, “OPTIMIZED SHORTENED PEPTIDE THAT BINDS TO ACETYLCHOLINE RECEPTOR, AND USE THEREOF” (SKINMED CO., LTD., priority 2021, published 2025).
